Results reported in PMC4969796 (The Journal of General Physiology, 2016).

Molecular target: the molecule itself
Assay: SDS-PAGE

B1: L24C/R117C KcsA (before chymotrypsin) (natural protein)
chain: MPPMLSGLLARLVKLLLGRHGSACHWRAAGAATVLLVIVLLAGSYLAVLAERGAPGAQLITYPRALWWSVETATTVGYGDLYPVTLWGRLVAVVVMVAGITSFGLVTAALATWFVGCEQERRGHFVRHSEKAAEEAYTRTTRALHERFDRLERMLDDNRR
stoichiometry N: 4
